Consider one protein from article PMC2730839.

Substrate in this series: O=C(O)C(=O)c1ccccc1
The series can be described thus: steady-state kinetics. It is filed as biochemical, Pseudomonas putida. To be noted: thiamin diphosphate (ThDP), Mg2+ active site.

B1: benzoylformate decarboxylase (BFDC) (Pseudomonas putida) (protein)
chain: MASVHGTTYELLRRQGIDTVFGNPGSNELPFLKDFPEDFRYILALQEACVVGIADGYAQASRKPAFINLHSAAGTGNAMGALSNAWNSHSPLIVTAGQQTRAMIGVEALLTNVDAANLPRPLVKWSYEPASAAEVPHAMSRAIHMASMAPQGPVYLSVPYDDWDKDADPQSHHLFDRHVSSSVRLNDQDLDILVKALNSASNPAIVLGPDVDAANANADCVMLAERLKAPVWVAPSAPRCPFPTRHPCFRGLMPAGIAAISQLLEGHDVVLVIGAPVFRYHQYDPGQYLKPGTRLISVTCDPLEAARAPMGDAIVADIGAMASALANLVEESSRQLPTAAPEPAKVDQDAGRLHPETVFDTLNDMAPENAIYLNESTSTTAQMWQRLNMRNPGSYYFCAAGGLGFALPAAIGVQLAEPERQVIAVIGDGSANYSISALWTAAQYNIPTIFVIMNNGTYGALRWFAGVLEAENVPGLDVPGIDFRALAKGYGVQALKADNLEQLKGSLQEALSAKGPVLIEVSTVSPVK
On to B1, for which the Km turned out to be 760 ± 90 µM.
